The text below walks through data of the RNAGym collection of RNA variant scans (doi:10.1093/molbev/msab373).

First the molecules themselves.
B1: Azoarcus group I ribozyme (parent)
chain: GUGCCUUGCGCCGGGAAACCACGCAAGGGAUGGUGUCAAAUUCGGCGAAACCUAAGCGCCCGCCCGGGCGUAUGGCAACGCCGAGCCAAGCUUCGGCGCCUGCGCCGAUGAAGGUGUAGAGACUAGACGGCACCCACCUAAGGCAAACGCUAUGGUGAAGGCAUAGUCCAGGGAGUGGCGAAAGUCACACAAACCGG

Variants of B1 are the subject of the data set. In words: reverse-splicing fitness (ratio to wild type); higher = more active; in vitro selection; Mg2+ level not given. The method in brief:
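An in vitro group I ribozyme library with randomized positions was T7-transcribed and gel-purified. In triplicate, 10 pmol RNA in EPPS pH 7.5 was reacted with 50 pmoles of a 30-nt RNA substrate for 1 h at 37 °C across several added MgCl2 levels (1–48 mM), then stopped with EDTA. Products were reverse transcribed from a substrate-complementary primer, PCR-amplified and sequenced (HiSeq 4000). Fitness is a variant's read proportion after selection over that before, normalised to wild type.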
For C82A A111C C150A C169G U176G, the reverse-splicing fitness stood at 0.00951. In the case of C82U A111C A145G C169U U176A it was 0.0178; in that of C82U A120G A145C C150A C169A, 0.00745. With A111G A145C C150G C169G U176G, the reverse-splicing fitness amounted to 0.00435. In the case of C82A A111C A120C A145C C169U U176C it was 0.0141; in that of C82U A111U A120G C150A U176C, 0.0164; in that of C82U A111C A120U A145C C150G, 0.00528. In the case of C82U A111C A120U A145C C150A it was 0.00398; in that of A111U A120G A145C C150U C169G U176A, 0.0293; in that of C82G A120C C150U C169A U176A, 0.0177. In the case of C82U A111G A120U C150G C169A U176G it was 0.00235; in that of C82G A111U A145G C150G C169U U176A, 0.0125. On to A120G C150U C169U U176G, for which the reverse-splicing fitness worked out at 0.011. In the case of C150A C169U U176A it was 0.0369; in that of C82A A111G A120G A145G C150U C169U, 0.011; in that of C82G A111C A120G A145C C150G C169G U176A, 0.00837. Consider C82G A120U C150G U176G, for which the reverse-splicing fitness was 0.00297. In the case of A111U A120U A145G C150G C169G it was 0.01; in that of C82G A111U A120U A145U U176A, 0.0108. In the case of C82A A111G A120U A145U U176A it was 0.00893. In the case of C82A A111C A120U C150G C169U U176A it was 0.00407; in that of C82A A111U A120C A145G C150A C169G U176C, 0.0343; in that of C82G A111G A145G C150U C169U U176C, 0.0151. Consider C82U A111C A120G A145G C150U C169U U176A, for which the reverse-splicing fitness is 0.0152. In the case of C82A A111C A120U A145C C150U it was 0.00922; in that of A120U A145C C150U C169U U176G, 0.00705. In the case of C82A A111C A120G it was 0.0149; in that of C82A A120G A145G C150A C169G U176C, 0.0247. In the case of C82G A111U C169U U176C it was 0.0158; in that of C82A A111U A120U U176G, 0.00275. As to C82U A111G A120G A145U C150G U176G, the reverse-splicing fitness came out at 0.00321. In the case of A111U A120U A145C C150G C169A U176A it was 0.00234; in that of C82A A111C A145G C169G U176A, 0.0221. In the case of C82A A111G A120U A145G C150A C169U U176A it was 0.0049; in that of C82G A111U A120C A145G C150A C169U, 0.0121; in that of C82G A111G A120G A145U C150U C169U, 0.0114. In the case of C82A A111U A120G A145U C169A U176A it was 0.012; in that of C82U A120G A145G C169U, 0.0197; in that of C82U A120C A145G C150U C169G U176A, 0.0128. In the case of C82A A111U A120C A145G C169G U176G, the reverse-splicing fitness came out at 0.00647.

Turning to C82G A111U A120C C150A C169U, the reverse-splicing fitness stood at 0.0114. Turning to C82U A120U A145C C150A U176A, the reverse-splicing fitness came to 0.00377. In the case of C82G A111C A120C A145G C150U C169U it was 0.0124. In the case of A111C A120C A145U C150A C169A it was 0.00839; in that of C82U A111C A145U C150G C169G U176G, 0.00703. As for A111U A120U C169G U176C, the reverse-splicing fitness is 0.00937. In the case of C82U A120U A145G C150U C169U U176C it was 0.00389. In the case of A111G A120U A145C C169U U176C it was 0.0146; in that of C82U A111C A120G A145G C150G U176G, 0.00607; in that of C82A A111C A120U A145U C150A U176C, 0.0062.

In the case of C82A A120G A145C C150U C169U U176G, the reverse-splicing fitness amounted to 0.00407. With C82G A111U A145C C150U U176A, the reverse-splicing fitness worked out at 0.0473. In the case of C82G A145C C150A it was 0.0227; in that of C82U A120G A145U C169A U176A, 0.00994; in that of C82G A111U A120G A145G C150U C169U U176G, 0.00561. In the case of A111U A120U C150G C169U U176C it was 0.00454; in that of C82G A111U A120G A145U C150G C169U U176G, 0.00505.

Consider C82U A111U A120U C169U U176C, for which the reverse-splicing fitness worked out at 0.00325. In the case of C82A A111U A120G A145G C169G U176A it was 0.021. In the case of C82G A120G A145U C150A it was 0.00866; in that of C82G A120C A145G, 0.21. In the case of C82G A111C A145G C150G C169G it was 0.00707. As to C82A A111C A120G C169G, the reverse-splicing fitness worked out at 0.00872. Turning to A111C A120C A145G C150A C169A U176G, the reverse-splicing fitness came out at 0.00677. In the case of C82A A111G C150A C169G it was 0.00926; in that of C82U A120G C169U, 0.0177. In the case of A111G A120C A145G C150A C169G U176G it was 0.00551.

For the variant A111G A145G C150U U176A, the reverse-splicing fitness was found to be 0.72. Regarding C82G A111C A145G C150U C169G U176G, the reverse-splicing fitness came to 0.00611. In the case of C82G A111U A120G A145U C150A C169U U176A it was 0.0183; in that of C82G A111U A120G C150U C169U U176A, 0.0199; in that of C82A A111U A120C A145G C150U C169A U176C, 0.018. C82A C150A C169G U176A: the reverse-splicing fitness came to 0.0198. In the case of C82G C150U C169U U176A it was 0.0142; in that of C82U A111G A120G C150U C169U U176G, 0.00611; in that of C82G A111C C150A C169G U176C, 0.024.

On to C82U A111G A120G C150A C169U, for which the reverse-splicing fitness amounted to 0.00735. In the case of C82G A111U A145U C150A C169G U176A it was 0.014; in that of A111U C150G U176C, 0.124; in that of C82A A111U A120U C150U U176G, 0.00345. In the case of C82U A111G A120C C150G C169G U176A it was 0.00718.

With A111G A120C A145U C150G C169U U176A, the reverse-splicing fitness was 0.0072. In the case of C82U A111C A120C C150G C169G U176C it was 0.0068; in that of C82G A111C A120G C150A U176C, 0.0193.
